Here are results for 29 sequences from the supplement of paper PMC9170038.

The subject of the data set is MS2 coat protein. Kind of data set: apparent KD of MS2 coat protein; designed switch direction (-1 OFF switch, 1 ON switch): -1; higher = weaker reporter binding. In a few lines: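 Designed RNA switches were transcribed on Illumina chips by stalled E. coli RNA polymerase and titrated with SNAP-549-labelled MS2 coat protein from 0.7 or 1.5 nM, doubling to 3 µM. Step length ran from 0.8–1.5 h at the lowest concentration to 10–20 min at the highest. The apparent KD is the median over clusters for each design, from curve-fitted normalised cluster fluorescence.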

[1] abbreviates: input ligand: microRNA oligo, concentration not stated.
Where [2] appears, read: Eterna round: R95, input ligand: microRNA oligo, concentration not stated.

With “ACAGCAUAGUUAGGAUAUUGCCGACACUGUGUGUUCCUACACAUGAGGAUCACCCAUGUGAAGCGCGAGAAGGAACUAACUGAA [Eternabot solution 8] (Eterna round: R96, puzzle: Exclusion NG 2)”, the “apparent KD of MS2 coat protein” value was 430 nM (input ligand: FMN 200 uM), 179 nM under setting [1] and 348 nM (input ligand: none).

In the case of “ACAGGUGCAGGAUAUACAUGAGGAUCACCCAUGUAGAUCAACCAGCGAUAGCUGGAAUGUAGAAGGGCACCUGU [E3/5-D1] (Eterna round: R97, puzzle: Exclusion 3)”, the “apparent KD of MS2 coat protein” value (input ligand: FMN 200 uM) was 94.4 nM and the “apparent KD of MS2 coat protein” value (input ligand: none) was 18.5 nM.

On to “ACAUGAGGAUCACCCAUGUAAACAUAAUGGCUGAUGUAGAGUCAGGAUAUGCGUGGCUAACAAUCGCAGAAGGGACAAGACUGG [Deportation 30 - Jieux - Exclusion NG 3] (Eterna round: R96, puzzle: Exclusion NG 3)”, for which the “apparent KD of MS2 coat protein” value runs as follows: (input ligand: FMN 200 uM) 22.2 nM; under setting [1], 23.1 nM; (input ligand: none) 25 nM.

Regarding “ACAUGAGGAUCACCCAUGUAAACAUAAUGGCUGAUGUAGAGUCAGGAUAUGUGUGGCUAACAAUCGCAGAAGGGACAAGACUGG [Deportation 31 - Jieux - Exclusion NG 3] (Eterna round: R96, puzzle: Exclusion NG 3)”, the “apparent KD of MS2 coat protein” value amounted to 23.5 nM (input ligand: FMN 200 uM), 19.2 nM under setting [1] and 31.8 nM (input ligand: none).

On to “ACAUGAGGAUCACCCAUGUAAUGAAGGGUACUAUAUUAAACGUAGGAUAUCGAUGUAAGUUUGUACGAGAAGGACGAUUGCCUU [JR_ExcNG3_Sub052] (Eterna round: R96, puzzle: Exclusion NG 3)”, for which the “apparent KD of MS2 coat protein” value amounted to 48.2 nM (input ligand: FMN 200 uM), 39.5 nM under setting [1] and 84.1 nM (input ligand: none).

For the sequence “ACAUGAGGAUCACCCAUGUAAUGAUGGGUACUAUAUUAUUCGUAGGAUAUCGUUGUUAGUUUGUGCGAGAAGGACGUUUGCCUU [JR_ExcNG3_Sub056] (Eterna round: R96, puzzle: Exclusion NG 3)”, the “apparent KD of MS2 coat protein” value came out at 994 nM (input ligand: FMN 200 uM), 667 nM under setting [1] and 698 nM (input ligand: none).

For the sequence “ACAUGAGGAUCACCCAUGUACACGUAAUGGCUCAUGUAGAGUGAGGAUAUGUGAGACGAACGAGAACAGAAGGCACAAGACAGG [Deportation 9 - Jieux - Exclusion NG 3] (Eterna round: R96, puzzle: Exclusion NG 3)”, the “apparent KD of MS2 coat protein” value is, setting by setting: (input ligand: FMN 200 uM) 29.1 nM; under setting [1], 30.1 nM; (input ligand: none) 35.9 nM.

As for “ACAUGAGGAUCACCCAUGUCAGGCGGGUCUACUCCGGCUGUUGAGGAUAUAGUUCGGUAUCCGCGCUAGAAGGUGAGGGCCGGC [Aenatbe mod 23] (Eterna round: R96, puzzle: Exclusion NG 3)”, the “apparent KD of MS2 coat protein” value is, setting by setting: (input ligand: FMN 200 uM) 20.8 nM; under setting [1], 14.9 nM; (input ligand: none) 21.8 nM.

With “ACAUGAGGAUCACCCAUGUCAGGUUGGUUUUCUCCGGCUGUUGAGGAUAUAGUCCGGUAUCCGCGCUAGAAGGUGAGGGUUGGC [Aenatbe mod 13] (Eterna round: R96, puzzle: Exclusion NG 3)”, the “apparent KD of MS2 coat protein” value was determined as 64.5 nM (input ligand: FMN 200 uM), 54.4 nM under setting [1] and 78.7 nM (input ligand: none).

Turning to “ACAUGAGGAUCACCCAUGUCCGGCUGGUCUGUUCCGGUUGUCGAGGAUAUAGUUCGGUGUUCGCGCUAGAAGGUGGGAGCUGGA [Aenatbe mod 54] (Eterna round: R96, puzzle: Exclusion NG 3)”, the “apparent KD of MS2 coat protein” value by setting is: (input ligand: FMN 200 uM) 186 nM; under setting [1], 103 nM; (input ligand: none) 136 nM.

On to “ACAUGAGGAUCACCCAUGUCCGUCUGGUCUGUCUCGGCUGUCGAGGAUAUAGCUCGGUAUCCGCGCUAGAAGGCGGGAGUCGGC [Aenatbe mod 96] (Eterna round: R96, puzzle: Exclusion NG 3)”, for which the “apparent KD of MS2 coat protein” value stood at 26.4 nM (input ligand: FMN 200 uM), 17.3 nM under setting [1] and 31.9 nM (input ligand: none).

Turning to “ACAUGAGGAUCACCCAUGUCUGGCGGGUCCUCUCCGGCUGUUGAGGAUAUAGUUCGGUAUCCGCGCUAGAAGGUGAGGGCCGGC [Aenatbe mod 20] (Eterna round: R96, puzzle: Exclusion NG 3)”, the “apparent KD of MS2 coat protein” value is 21.3 nM (input ligand: FMN 200 uM), 14.6 nM under setting [1] and 16.5 nM (input ligand: none).

With “ACAUGAGGAUCACCCAUGUGAAACCAAUGGCUGACUUUGAGACAGGAUAUUCGUGCAUAUCAUACGAAGAAGGGUCAUUACUGG [Deportation 96 - Jieux - Exclusion NG 3] (Eterna round: R96, puzzle: Exclusion NG 3)”, the “apparent KD of MS2 coat protein” value (input ligand: FMN 200 uM) was 63.5 nM, the “apparent KD of MS2 coat protein” value under setting [1] worked out at 45.8 nM and the “apparent KD of MS2 coat protein” value (input ligand: none) turned out to be 55.2 nM.

On to “ACAUGAGGAUCACCCAUGUGACAAGAAUGGCUGACACAGAGAUAGGAUAUAGGUGCAUAUCUAACCUAGAAGGGUCAUGACUGG [Deportation 76 - Jieux - Exclusion NG 3] (Eterna round: R96, puzzle: Exclusion NG 3)”, for which the “apparent KD of MS2 coat protein” value (input ligand: FMN 200 uM) came out at 40.2 nM, the “apparent KD of MS2 coat protein” value under setting [1] stood at 23.3 nM and the “apparent KD of MS2 coat protein” value (input ligand: none) amounted to 26.5 nM.

Take “ACAUGUAAUGCAGGAUAUCUGACACAUGAGGAUCACCCAUGUGACCAGAGGAAUUGCUAUGAGUCGGAGAAGGGUAUGUACAUG [Ex NG2 #54] (Eterna round: R96, puzzle: Exclusion NG 2)”: the “apparent KD of MS2 coat protein” value reads like this: (input ligand: FMN 200 uM) 37.7 nM; under setting [1], 20.3 nM; (input ligand: none) 27.1 nM.

As to “ACAUGUAAUGUAGGAUAUUUUACACAUGAGGAUCACCCAUGUGACCGGAGGCUUUACUAUGAGUAAGAGAAGGGUAUGUACAUG [Ex NG2 #62] (Eterna round: R96, puzzle: Exclusion NG 2)”, the “apparent KD of MS2 coat protein” value came out at 90.5 nM (input ligand: FMN 200 uM), 56.6 nM under setting [1] and 86.7 nM (input ligand: none).

Regarding “ACAUGUCAUCGAGGAUAUUGGACACAUGAGGAUCACCCAUGUACUCGGAGGCUCUACCAUGAGUUCGAGAAGGCGAUGUACAUU [Ex NG2 #77] (Eterna round: R96, puzzle: Exclusion NG 2)”, the “apparent KD of MS2 coat protein” value by setting is: (input ligand: FMN 200 uM) 542 nM; under setting [1], 256 nM; (input ligand: none) 230 nM.

“ACAUGUCAUCGAGGAUAUUGUACACAUGAGGAUCACCCAUGUAUUCGGUUGCUCUAGCAUGAGUUCGAGAAGGCGAUGUACAUU [Ex NG2 #83] (Eterna round: R96, puzzle: Exclusion NG 2)”: the “apparent KD of MS2 coat protein” value by setting is: (input ligand: FMN 200 uM) 153 nM; under setting [1], 134 nM; (input ligand: none) 194 nM.

Turning to “ACAUGUUAUGUAGGAUAUUAUACACAUGAGGAUCACCCAUGUAACCGGAGGCUUUACUAUGAGUAUGAGAAGGGUAUGAACAUG [Ex NG2 #65] (Eterna round: R96, puzzle: Exclusion NG 2)”, under setting [1], the “apparent KD of MS2 coat protein” value worked out at 64.2 nM.

On to “ACAUGUUAUGUAGGAUAUUGGACACAUGAGGAUCACCCAUGUACCCGGAGGCUUUACUAUGAGUUCGAGAAGGGUAUGAACAUG [Ex NG2 #68] (Eterna round: R96, puzzle: Exclusion NG 2)”, for which the “apparent KD of MS2 coat protein” value runs as follows: (input ligand: FMN 200 uM) 39.8 nM; under setting [1], 21.1 nM; (input ligand: none) 29.4 nM.

Turning to “ACAUGUUGCGCAGGAUAUGAGACACAUGAGGAUCACCCAUGUGGUUACAUGUCUUACCAAGCGUCUCAGAAGGGUGUGAACAUG [Ex NG2 #33] (Eterna round: R96, puzzle: Exclusion NG 2)”, the “apparent KD of MS2 coat protein” value reads like this: (input ligand: FMN 200 uM) 36.4 nM; under setting [1], 20.3 nM; (input ligand: none) 24.7 nM.

With “ACAUGUUGUCCAUGAUAUUACAUGAGGAUCACCCAUGUUAUUGCGAUUUUGAUGUGUAAGUUUGUUGCUCGUCUUAU [JR_STOV1_Sub062] (Eterna round: R97, puzzle: Sensor, turn-off variant 1)”, the “apparent KD of MS2 coat protein” value by setting is: (input ligand: FMN 200 uM) 29.6 nM; (input ligand: none) 32.6 nM.

Turning to “ACAUUGCGAGGAUAUACAUGAGGAUCACCCAUGUGGUAGUGGAUACGGUAGGGCUAGUGUAGAAGGUGUUAUGA [EX3 #15] (Eterna round: R97, puzzle: Exclusion 3)”, the “apparent KD of MS2 coat protein” value is, setting by setting: (input ligand: FMN 200 uM) 98.8 nM; (input ligand: none) 132 nM.

For the sequence “ACAUUGCUAGGAUAUCGCGGUAAGGACAUGAGGAUCACCCAUGUGGUGCCGUGGGAGGCCCGAGAAGGAGCGACCU [Maveonle] (puzzle: Exclusion 5)”, the “apparent KD of MS2 coat protein” value under setting [2] worked out at 18.1 nM.

Regarding “ACCAUGUAAGGAUAUGGUGGCUGUGAACAGGCCUGAUAAAUCUAGAAGGUACAUGAGGAUCACCCAUGUGAUGA [Eternabot (L2) Solution 84] (Eterna round: R97, puzzle: Exclusion 4)”, the “apparent KD of MS2 coat protein” value (input ligand: FMN 200 uM) was found to be 54 nM and the “apparent KD of MS2 coat protein” value (input ligand: none) turned out to be 32.7 nM.

“ACCCUGUGAGGAUAUUGUGAGCAGACACUUGAGUGCAAUCAUAAGAAGGUACAUGAGGAUCACCCAUGUGAAAC [Eternabot (L1) Solution 90] (Eterna round: R97, puzzle: Exclusion 4)”: the “apparent KD of MS2 coat protein” value was 30.4 nM (input ligand: FMN 200 uM) and 38.7 nM (input ligand: none).

Consider “ACCUAUGAGGAGGAUAUACAGUGCGAAAGGACAGUAGAAGGCUUCACAUGAGGAUCACCCAUGUCGAUAAGCGA [EX6 #83] (Eterna round: R97, puzzle: Exclusion 6)”, for which the “apparent KD of MS2 coat protein” value was found to be 30.2 nM (input ligand: FMN 200 uM) and 21.5 nM (input ligand: none).

For the sequence “ACCUAUGAGGAGGAUAUACGGUGCGAAAGGAAGGUAGAAGGCUUCACAUGAGGAUCACCCAUGUCGAUAAGCGA [EX6 #85] (Eterna round: R97, puzzle: Exclusion 6)”, the “apparent KD of MS2 coat protein” value came out at 27.7 nM (input ligand: FMN 200 uM) and 23.3 nM (input ligand: none).

As to “ACCUCACAUGAGGAUCACCCAUGUUAGGAUAUCUCGGUGCCCUGCAGGCAGUGGCACCAGAGAAGGAACGUGCA [Anbearqu] (puzzle: Exclusion 1)”, the “apparent KD of MS2 coat protein” value under setting [2] turned out to be 17.2 nM.
